How the values were obtained:
[1] = biological target: Recombinant FAK FAT protein (fluorescence polarization assay) (human) (UniProt Q05397); experiment: FP
[2] = biological target: Biotinylated AviTag FAK FAT protein (UniProt Q05397); experiment: SPR; settings: left panel, two-site binding model, peptide 200 µM to 49 nM, n = 5, X = olefinic amino acids joined by an i,i + 7 hydrocarbon staple
Biotinylated AviTag FAK FAT protein, sequence (Q05397 whole entry): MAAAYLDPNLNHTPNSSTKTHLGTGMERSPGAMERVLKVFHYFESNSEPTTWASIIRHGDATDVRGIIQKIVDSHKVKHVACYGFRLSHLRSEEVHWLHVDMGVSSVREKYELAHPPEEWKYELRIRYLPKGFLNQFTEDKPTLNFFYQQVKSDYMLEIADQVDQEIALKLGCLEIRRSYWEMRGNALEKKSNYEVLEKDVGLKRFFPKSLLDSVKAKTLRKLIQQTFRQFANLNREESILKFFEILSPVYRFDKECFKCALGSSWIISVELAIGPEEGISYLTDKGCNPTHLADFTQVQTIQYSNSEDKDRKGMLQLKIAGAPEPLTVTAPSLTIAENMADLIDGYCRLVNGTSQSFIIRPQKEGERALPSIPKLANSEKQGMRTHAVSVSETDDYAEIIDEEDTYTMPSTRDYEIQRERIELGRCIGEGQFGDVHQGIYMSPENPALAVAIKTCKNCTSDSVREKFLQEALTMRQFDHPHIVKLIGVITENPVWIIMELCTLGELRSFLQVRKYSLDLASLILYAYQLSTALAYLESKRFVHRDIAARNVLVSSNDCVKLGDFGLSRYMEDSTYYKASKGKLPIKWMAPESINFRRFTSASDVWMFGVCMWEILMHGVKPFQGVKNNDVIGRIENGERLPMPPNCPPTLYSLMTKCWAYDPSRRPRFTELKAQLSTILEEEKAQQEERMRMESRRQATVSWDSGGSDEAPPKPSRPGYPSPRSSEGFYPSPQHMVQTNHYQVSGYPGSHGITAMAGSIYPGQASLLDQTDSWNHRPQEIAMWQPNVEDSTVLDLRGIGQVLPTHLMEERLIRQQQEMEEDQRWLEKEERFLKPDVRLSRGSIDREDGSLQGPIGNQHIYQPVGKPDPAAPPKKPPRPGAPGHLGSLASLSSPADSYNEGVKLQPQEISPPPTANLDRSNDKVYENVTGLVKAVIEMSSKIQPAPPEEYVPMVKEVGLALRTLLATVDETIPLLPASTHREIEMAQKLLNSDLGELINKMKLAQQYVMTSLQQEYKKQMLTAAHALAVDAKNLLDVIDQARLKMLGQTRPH

Recombinant FAK FAT protein (fluorescence polarization assay) (human), sequence (Q05397 whole entry): as above
Negative control peptide 2014 (1907 with L145E and L152E), sequence (P49023 whole entry L145E/L152E, looked up, tested part not stated): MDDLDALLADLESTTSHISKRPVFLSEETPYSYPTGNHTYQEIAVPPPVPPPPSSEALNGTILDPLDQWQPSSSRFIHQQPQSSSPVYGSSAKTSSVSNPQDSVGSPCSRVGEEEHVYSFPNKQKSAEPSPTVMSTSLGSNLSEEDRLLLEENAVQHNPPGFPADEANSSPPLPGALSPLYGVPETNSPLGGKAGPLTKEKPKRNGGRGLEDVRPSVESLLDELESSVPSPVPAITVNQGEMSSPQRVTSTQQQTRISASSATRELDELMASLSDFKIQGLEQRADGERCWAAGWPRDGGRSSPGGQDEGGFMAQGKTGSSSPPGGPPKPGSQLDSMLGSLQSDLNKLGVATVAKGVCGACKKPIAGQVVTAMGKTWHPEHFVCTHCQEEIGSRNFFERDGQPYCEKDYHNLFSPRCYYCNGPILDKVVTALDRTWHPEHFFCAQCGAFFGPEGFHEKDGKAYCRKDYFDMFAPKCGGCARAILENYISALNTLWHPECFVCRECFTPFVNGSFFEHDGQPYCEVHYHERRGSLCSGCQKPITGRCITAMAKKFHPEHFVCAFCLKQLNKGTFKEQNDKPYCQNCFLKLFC

Row | Substance | Ki [1] [µM] | Kd ([2]; KD1) [µM] | Kd ([2]; KD2) [µM]
1 | Negative control peptide 2014 (1907 with L145E and L152E) (from UniProt P49023 141-153) | > 1250 | – | –
2 | Paxillin LD2 peptide (141-…-153) S143X; L150X | – | 0.8 | 8.7

— PMC11871066, “Structure-based discovery of hydrocarbon-stapled paxillin peptides that block FAK scaffolding in cancer” (Nature Communications, 2025)
